Results: publication PMC6063412, “Development of monoclonal anti-PDGF-CC antibodies as tools for investigating human tissue expression and for blocking PDGF-CC induced PDGFRα signalling in vivo” (PLoS ONE, 2018)
Numbering of substitutions follows the chain as printed.

B1: monoclonal anti-PDGF-CC antibody 6B3 (antibody, V domains shown)
VH: QVQLQQSGVEVARPGASVKLSCKASGYTFRSYGITWVRQRTGQGLEWIGEIYPRSGKTYYNEKFKGKATLTADTSSSTVYMELRSLTSEDSAVYFCAREGYGYDGGYFDYWGQGTTLTVSS
VL: DIVMTQSPSSLAMSVGQKVTMSCKSSQSLLNSRNQKNYLAWYQQKPGQSPKLLVYFASTRESGVPDRFTGSGSGTDFTLTISSVQAEDLAVYYCQQHYSTPLTFGAGTKLELK
notes: VH CDR1 (Kabat combined with Chothia); VH CDR2; VH CDR3; VL CDR1 (Kabat combined with Chothia); VL CDR2; VL CDR3; Mouse IgG2a, kappa; Only the CDRs are printed; frameworks are not; also called mAb 6B3; clone 6B3; source: mouse hybridoma; culture supernatant, or IgG purified (HiTrap-Protein G)
B2: monoclonal anti-PDGF-CC antibody 19C7 (antibody, V domains shown)
VH: B1 VH
VL: B1 VL
notes: VH CDR1 (Kabat combined with Chothia); VH CDR2; VH CDR3; VL CDR1 (Kabat combined with Chothia); VL CDR2; VL CDR3; Mouse IgG2a, kappa; CDRs identical to those of 6B3; also called clone 19C7; source: mouse hybridoma; culture supernatant, or IgG purified (HiTrap-Protein G)
B3: monoclonal anti-PDGF-CC antibody 11F5 (antibody, V domains shown)
VH: QVQLQQSGAELARPGASVKLSCKASGYIFISYGISWVKQRTGQGLEWIGEIYPRSGKTYYNEKFKDKAALTADKSSSIAYMELRSLTSEDSAVYFCAREGYGYDGGYFDYWGQGTILTVSS
VL: B1 VL with T20A, M21V, R33S, E61D
notes: VH CDR1 (Kabat combined with Chothia); VH CDR2; VH CDR3; VL CDR1 (Kabat combined with Chothia); VL CDR2; VL CDR3; Mouse IgG2a, kappa; Only the CDRs are printed; frameworks are not; also called clone 11F5; source: mouse hybridoma; culture supernatant, or IgG purified (HiTrap-Protein G)

Key:
[1] = molecular target: T1, recombinant human PDGF-CC core domain protein (activated PDGF-CC, growth factor domain) (human, UniProt Q9NRA1); assay: immunoblot; recombinant PDGF proteins run reduced and non-reduced, blotted and probed with murine mAb IgG; conditions: both partners purified
T1 construct: platelet-derived growth factor C, human, core domain (growth factor domain, GFD) released from the N-terminal CUB domain; also called hPCc; active PDGF-CC

[2] = molecular target: T2, human latent full-length PDGF-CC (Homo sapiens, UniProt Q9NRA1); assay: as above; conditions: both partners purified
T2 construct: platelet-derived growth factor C, human, latent full-length form with the CUB domain; also called hPCf; latent PDGF-CC

[3] = molecular target: T3, human PDGF-DD (Homo sapiens, UniProt Q9GZP0); assay: as above; conditions: both partners purified
[4] = molecular target: T4, PDGF-AA (UniProt P04085); assay: ELISA; 96-well plate coated with PDGF-AA, PDGF-BB, PDGF-CC or PDGF-DD; 6B3 applied (methods: hybridoma supernatant in dilution series), anti-mouse IgG-AP, absorbance at 405 nm; conditions: one partner purified
T4 construct: platelet-derived growth factor A chain homodimer

[5] = molecular target: T5, PDGF-BB (UniProt P01127); assay: as above; conditions: one partner purified
T5 construct: platelet-derived growth factor B chain homodimer

[6] = molecular target: T6, endogenous human PDGF-CC in A549 cells and placental tissue (Homo sapiens (endogenous, A549 and …, UniProt Q9NRA1)); assay: immunostaining of cells or tissue; paraffin-embedded sections of A549 cells and human placenta, citric acid antigen retrieval, 6B3 at 1.5 μg/ml, anti-mouse-HRP and DAB; with or without 1 h pre-incubation of 6B3 with 6.7 X excess PDGF-CC His6 (10 μg/ml); conditions: one partner purified
T6 construct: platelet-derived growth factor C, endogenous; source: endogenous, paraffin-embedded sections of the A549 cell line and human placental tissue

[7] = molecular target: T3, human PDGF-DD; assay: ELISA; data not shown; as the 6B3 ELISA on coated PDGF-AA, PDGF-BB, PDGF-CC and PDGF-DD, with other clones; conditions: one partner purified
[8] = molecular target: T4, PDGF-AA; assay: as above; conditions: one partner purified
[9] = molecular target: T5, PDGF-BB; assay: as above; conditions: one partner purified

T5 sequence (P01127 82-190): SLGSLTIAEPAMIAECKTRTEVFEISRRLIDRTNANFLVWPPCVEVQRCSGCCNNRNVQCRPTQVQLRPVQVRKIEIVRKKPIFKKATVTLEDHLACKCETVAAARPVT
T1 sequence (Q9NRA1 230-345): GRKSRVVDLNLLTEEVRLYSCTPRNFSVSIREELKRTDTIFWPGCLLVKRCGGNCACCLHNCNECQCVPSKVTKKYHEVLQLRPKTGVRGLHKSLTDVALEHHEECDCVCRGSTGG
T6 sequence (Q9NRA1 23-345): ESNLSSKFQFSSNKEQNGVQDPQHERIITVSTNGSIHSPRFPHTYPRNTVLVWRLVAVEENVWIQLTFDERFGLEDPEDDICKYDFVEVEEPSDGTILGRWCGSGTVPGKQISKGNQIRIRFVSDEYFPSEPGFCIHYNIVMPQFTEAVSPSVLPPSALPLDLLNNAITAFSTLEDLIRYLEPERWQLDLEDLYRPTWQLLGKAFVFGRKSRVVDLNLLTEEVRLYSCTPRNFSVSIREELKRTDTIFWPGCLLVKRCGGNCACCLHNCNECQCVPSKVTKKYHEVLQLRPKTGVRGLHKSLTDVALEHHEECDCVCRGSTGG
T2 sequence (Q9NRA1 23-345): as above

| Binder | binding result [1] | binding result [2] | binding result [3] | binding result [4] | binding result [5] | binding result [6] | binding result [7] | binding result [8] | binding result [9] |
| --- | --- | --- | --- | --- | --- | --- | --- | --- | --- |
| B1 | binds | binds | no binding | no binding | no binding | binds |  |  |  |
| B2 |  |  |  |  |  |  | no binding | no binding | no binding |
| B3 |  |  |  |  |  |  | no binding | no binding | no binding |
